From PMC11101452, “Structures of the mumps virus polymerase complex via cryo-electron microscopy” (Nature Communications, 2024)

Target: the molecule itself
Assay: cryo-EM structure; L–P complex co-expressed in Sf9 and co-purified by the Strep tag of L; 2.0 μM; annealed and unannealed samples combined; 150 mM NaCl, 20 mM Tris-HCl, 6 mM MgCl2, 1 mM TCEP, pH 8.0; two conformations (L_(integral)–P, L_(body)–P)

B1: mumps virus (strain Jeryl-Lynn) phosphoprotein (P) (natural protein)
chain: MDQFIKQDETGDLIETGMNVANHFLSTPIQGTNSLSKASILPGVAPVLIGNPEQKNIQHPTASHQGSKTKGRGSGVRSIIVSPSEAGNGGTQIPEPLFAQTGQGGIVTTVYQDPTIQPTGSYRSVELAKIGKERMINRFVEKPRTSTPVTEFKRGGPGAAAQGQTIQEEGIDGNGASAGSKERSGSLSGATLYAHLSLPQQDSTPANVGIAPQSAISANEIMDLLRGMDARLQHLEQKVDKVLAQGSMVTQIKNELSTVKTTLATIEGMMATVKIMDPGNPTGVPVDELRRSFSDHVTIVSGPGDVSFSSSEKPTLYLDELARPVSKPRPAKQTKSQPVKDLAGQKVMITKMITDCVANPQMKQAFEQRLAKASTEDALNDIKRDIIRSAI
notes: Phosphoprotein (P) of mumps virus strain Jeryl-Lynn, GenBank AAF70389.1; domains NTD, OD, Linker2, CTD (with XD); Four P molecules (P1-P4) stand in the L–P complex; only POD, Linker2 and part of PCTD are resolved; also called MuV P; P1; not shown: Flag, C-terminal, kept
stoichiometry N: 4
